Test results as given in article PMC4154765, “Crystal Structure of the Mineralocorticoid Receptor DNA Binding Domain in Complex with DNA” (PLoS ONE, 2014).

How the values were obtained:
MR DBD [1] = target: T1, MR DBD (human, UniProt P08235 593-671); assay: X-ray crystallography; DBD dimer on two half sites; 2.4 A; FP: 100 mM NaCl, 20 mM Tris-HCl pH 7.4, 5% glycerol, 10 nM FAM-GRE; temperature not stated; details: protein: recombinant; tags: 6xHis (pMCSG7 vector); chain copies: 2
[2] = target: the molecule itself; assay: crystal structure; MR DBD crystallised with a 17 base pair GRE DNA, 2:1 molar ratio of DNA to protein, protein at 3.0 mg/ml; hanging-drop vapor diffusion, 0.2 M sodium malonate, 12% PEG 3350; the DBD dimer is seen bound to the two DNA half sites
GR DBD = GR DBD (UniProt P04150 417-506); assay: fluorescence polarization; 10 nM DNA; slight positive cooperativity; endpoint called affinity; FP: 100 mM NaCl, 20 mM Tris-HCl pH 7.4, 5% glycerol, 10 nM FAM-GRE; temperature not stated; details: protein: recombinant; chain copies: 2; label: 5' 6-FAM on strand 1; blunt
GR DBD, sequence (P04150 417-506): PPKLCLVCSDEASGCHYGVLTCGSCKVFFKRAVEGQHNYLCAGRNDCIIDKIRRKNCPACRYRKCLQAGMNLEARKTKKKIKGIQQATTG

MR DBD [3] = target: T1, MR DBD; assay: as above; details: protein: recombinant; tags: 6xHis (pMCSG7 vector); chain copies: 2; label: 5' 6-FAM on strand 1; blunt

B1: GRE 17 bp (crystal) (dsDNA)
DNA 1: GTCTTGTCTCACAAGAC
DNA 2: GTCTTGTGAGACAAGAC
binding result (MR DBD [1]): binds

B2: human mineralocorticoid receptor DNA binding domain (domain or fragment, UniProt P08235 593-671, looked up)
chain: STGSSRPSKICLVCGDEASGCHYGVVTCGSCKVFFKRAVEGQHNYLCAGRNDCIIDKIRRKNCPACRLQKCLQAGMNLG
notes: Cloned into pMCSG7, 'which contains a 6X-histidine tag'; Two copies of the chain form the dimer on the GRE DNA in the crystal; also called MR DBD; MR
binding result [2]: binds

B3: FAM-GRE (dsDNA)
DNA 1: CCAGAACAGAGTGTTCTGA
DNA 2: TCAGAACACTCTGTTCTGG
Kd (GR DBD): 53 nM | Kd (MR DBD [3]): 55 nM
